# Several values for one entry are separate records, joined by “and”; a condition that tells them apart may be missing. Identical values can stand only once.
# Tests used:
# [1] = Blood clearance (PK) by whole blood fluorescence imaging; type: in vivo, Balb/c mice
# Description: For biodistribution studies 5 × 10^4 of CT26 cancer cells were injected SQ in 100 µL of growth medium into the right flank of female Balb/c mice and tumors were grown until they reached 150–250 mm^3 in volume. Then a single retro-orbital (RO) injection of 50 μM 100 μL of 2(ICG-pHLIP)-dMSA was performed. Animals were euthanized at 5 min, 1, 4, 24, 48, 72, and 120 h post-injection, blood was collected in K2 EDTA vacutainer blood collection tubes (BD), and necropsy was performed immediately after animals were euthanized. Blood, tumors and major organs (kidney, liver, spleen, pancreas, lung, heart, large and small intestines, bone, muscle, brain) were collected, and imaged ex vivo immediately after necropsy. Blood (200 µL) was imaged in 96-well plates with black bottom and walls.
# The in vivo and ex vivo bright field and near-infrared fluorescent imaging employed a Stryker 1588 AIM endoscopic system with L10 AIM Light Source (808 nm excitation and collection of light in the range of approximately of 815–850 nm), and a 1588 AIM Camera using a 10 mm scope. The lens was kept at a fixed distance from the surface of the organs, within an enclosed (light-protected) area. Calibration curves converting laser and gain settings were established by imaging of pHLIP-ICG solution at different concentrations. The ex vivo fluorescence imaging of tissue specimens was performed using three different laser settings and six different gain settings. The digital fluorescence images were split into RGB channels, with the green channel being analyzed using ImageJ program to calculate the average fluorescence intensity. All average intensities were adjusted based on their capture settings and using calibration curves to present fluorescence intensities corresponding to the unified (the same) settings.
# [2] = Stability in mouse plasma; details: BALB/c mouse plasma, 200 µM, 0-24 h at 37°C, methanol precipitation, HPLC C18, UV 220/280/325 nm
# Description: Plasma proteins were precipitated by methanol (1:5 volume ratio of plasma to methanol) and centrifuged for 10 min at […]. The supernatant was collected and analyzed by HPLC using a Zorbax SB-C18 4.6 × 250 mm, 5 μm column with a gradient from 20% to 80% acetonitrile in water containing 0.05% TFA. Chromatograms were recorded at 220 nm, 280 nm and 325 nm.
# [3] = tested on: CT26 murine colorectal cancer tumors; assay: Treatment of CT26 tumors in mice; type: in vivo, Balb/c mice; details: CT26 tumors 100-150 mm3, female Balb/c, followed 65 days
# Description: For the treatment of CT26 tumors, 5 × 10^4 CT26 murine colorectal cancer cells (ATCC, CRL-2638) were injected subcutaneously (SQ) in 100 μL of growth medium into the right flank of female Balb/c mice ranging in age from 7 to 9 weeks (Envigo RMS, Inc.). […] The compounds were dissolved in DMSO as a stock solution and transferred to PBS (vehicle). The residual DMSO in the final solution injected into animals was less than 2%. Tumor volume and body weight were measured 3 times per week throughout the study. Measurements of tumors were performed using calipers, and the tumor volume (V) was calculated with the formula: V=0.52∙L∙W^2 where L is the length and W is the width of the measured tumor. Mice were removed from the study and euthanized when the tumor volume was greater than 2,000 mm^3.
# [4] = Body weight of treated mice; type: in vivo, Balb/c mice; details: two IP injections, 300 µM or 100 µM 500 µL, days 1 and 3
# Description: For the treatment of CT26 tumors, 5 × 10^4 CT26 murine colorectal cancer cells (ATCC, CRL-2638) were injected subcutaneously (SQ) in 100 μL of growth medium into the right flank of female Balb/c mice ranging in age from 7 to 9 weeks (Envigo RMS, Inc.). […] 2pHLIP-dMSA was given as two IP injections of 300 μM 500 μL or 100 μM 500 μL (low dose). The compounds were dissolved in DMSO as a stock solution and transferred to PBS (vehicle). The residual DMSO in the final solution injected into animals was less than 2%. Tumor volume and body weight were measured 3 times per week throughout the study. Measurements of tumors were performed using calipers, and the tumor volume (V) was calculated with the formula: V=0.52∙L∙W^2 where L is the length and W is the width of the measured tumor. Mice were removed from the study and euthanized when the tumor volume was greater than 2,000 mm^3.
sequence,measurement,setting,value
ADQDNPWRAYLDLLFPTDTLLLDLLWCG [2pHLIP-dMSA],circulation in the blood,"[1]; mice, stated in discussion",1 to 2 days
same,blood clearance half-life,"[1]; single RO injection of 2(ICG-pHLIP)-dMSA 50 µM 100 µL, CT26 tumor-bearing female Balb/c mice, whole blood fluorescence, exponential fit",> 30 h
same,stability in mouse plasma (in words),[2],low
same,"mice survived out of treated, lower dose",[3]; two IP injections of 100 µM 500 µL (l.d.) on days 1 and 3,4 out of 10 and 4/10
same,mice with tumor eradicated / survived out of treated,[3]; two IP injections of 300 µM 500 µL on days 1 and 3,7/10
same,body weight change after treatment (in words),[4],temporary weight loss followed by complete recovery and regain of weight

# From PMC10940318, “Targeted intracellular delivery of dimeric STINGa by two pHLIP peptides for treatment of solid tumors” (Frontiers in Pharmacology, 2024)
